Measurements taken from patent US20040109827A1, “Powdery preparations and proecss for producing the same” (priority 2000, published 2004).

Assay: Cascade impactor (Andersen sampler) analysis of powder formulations as a model of artificial airways and lung
Conditions: Table 9
Description: In order to investigate aerodynamic particle diameters of powders, examination was carried out using a cascade impactor as a model of artificial airways and lung. The main body comprises 8 stages and a final filter superposed on top of another in combination with a flow meter and a suction pump. The method described in “Multistage Cascade Impactor Apparatus” in USP 2000 “Physical Tests and Determinations/Aerosols” was basically employed. A specific condition is as described below.
Suitable amounts of the formulations were filled into the No. 2 capsules specified by the Japanese Pharmacopoeia and placed on the device.
These formulations were analyzed using a cascade impactor. […] These RF values are obtained by weighing the powders collected at each stage and dividing the amounts collected at stages 2 to 5 by a total amount of finely ground substances contained in the formulations.
These formulations were analyzed using a cascade impactor. […] These RF values are obtained by quantifying by HPLC the glucagon in formulations collected at each stage and dividing the amounts of glucagon at stages 2 to 5 by the total amount of glucagon contained in the encapsulated formulations. Conditions for HPLC analysis are as shown below.
These formulations were filled into the No. 2 capsules specified by the Pharmacopoeia of Japan and analyzed using the following device.

glucagon
Retention in capsule (No. 2 capsule, Jet-haler, suctioning for 10 seconds): Almost all formulations remained due | RF value (glucagon by HPLC at stages 2 to 5 / total glucagon in encapsulated formulations, lactose carrier Pharmatose 325 M): 0%
